Legend:
[1] = biological target: human Cu/Zn Superoxide Dismutase 1, A4V variant (Flag-SOD1-6His) (human) (UniProt P00441); experiment: SEC; gel filtration of the Ni-NTA eluate on a custom-made calibrated Sephacryl S-200 column (1.2 x 100 cm), TBS pH 7.4, UV detection at 280 nm
[2] = biological target: human Cu/Zn Superoxide Dismutase 1, A4V variant (Flag-SOD1-6His) (human) (UniProt P00441); experiment: native gel or EMSA; Native-PAGE of selected gel filtration fractions, SDS-free 10% gel, samples not boiled, run at RT, Coomassie stain; ESTDZ2 (ca. 28 kDa) as size standard

stoichiometry N [1]: 2 | stoichiometry N [2]: 2
Substance: human Cu/Zn Superoxide Dismutase 1, A4V variant (Flag-SOD1-6His) (from UniProt P00441 6-154) (enzyme)

From PMC11510448
